# ± gives the standard deviation.
# Assay: protein stability index of a GFP-peptide fusion (GPS, HEK-293T) (PSI 1-6); higher = more stable
# Details: c terminus: a fixed tail appended
# 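Further: 24-mer peptide tiles fused after GFP, lentivirally expressed, FACS-sorted into six equal bins by GFP/DsRed ratio, decoded by Illumina sequencing, PSI is the read-weighted mean bin number.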
Sequence,protein stability index (treatment: DMSO),"protein stability index (treatment: MLN4924 1 uM, 8 h)"
GGGFAGGDGLLVGSEKVTMQNLND [KRT16],4.72 ± 0.34,4.73 ± 0.1
PEIDMFLNVATFLDPRYKRLPFLS [ZBED1],2.42 ± 0.43,2.25 ± 0.48
RALVRQFGQQDWKFLASHFPNRTD [MYBL2],3.09 ± 0.41,2.93 ± 0.19
DKAMKKDGLVGMAIVGGMALGVAG [FIS1],2.89 ± 0.16,2.67 ± 0.12
KLIQKKLLDKTCDQVMEFSWSALW [ZER1],2.41 ± 0.41,2.35 ± 0.2
EVRLVQKKDTGHIYAMKILRKSDM [STK38L],2.65 ± 0.22,2.45 ± 0.29
MGGTTSTRRVTFEADENENITVVK [CHCHD3],4.95 ± 0.27,5.11 ± 0.21
PLPAGVPPLEDFEVLDGVEDAEGE [FKBP8],5.64 ± 0.26,5.44 ± 0.46
CMFQEHKNHSTVTVEEAKAEKETE [TRIM29],5.52 ± 0.22,5.36 ± 0.24
PTPIFAGGANDRWVRSVSFSHDGL [WSB1],2.61 ± 0.19,2.99 ± 0.64
NDDYYEESYFTTRTYGEPESAGPS [EMD],4.84 ± 0.17,4.72 ± 0.17
PLGLEADMWSIGVITYILLSGASP [DAPK3],2.52 ± 1.4,2.27 ± 0.23
AHFYGVKLEGKVPMHKLFLEMLEA [ESRRA],2.46 ± 0.51,2.12 ± 0.034
APAVEVAPAGASYNPSFEDHQTLL [NOP53],4.84 ± 0.12,5.14 ± 0.25
TLCAMLPLLLFTYLNSFLHQRIPQ [SLC29A1],3.18 ± 0.14,3.06 ± 0.17
MPPLLPLRLCRLWPRNPPSRLLGA [DNAJC4],2.29 ± 0.37,2.15 ± 0.11
PIGELYGLSESSGPHTISNQNNYR [ACSBG2],3.91 ± 0.31,4.07 ± 0.57
VVFGLLLSYVMSGYRCFVCPVEYN [CDS2],3.55 ± 0.062,3.41 ± 0.31
EILGIEPDREKGFHLDVEDYLSGV [TSN],3.27 ± 0.22,3.45 ± 0.41
AILVKVQLDALPFFVITMIKIVLI [SLC29A1],3.23 ± 0.22,3.23 ± 0.37
TEPWGGTAIRPLKILPWSPEKIGT [PNLIPRP1],3.45 ± 0.26,3.65 ± 0.36
MENKKKDKDKSDDRMARPSGRSGH [CSNK1G3],5.42 ± 0.34,5.31 ± 0.44
WEMIRKIGDTSVSYKYTSRYVLKA [LMNB1],1.98 ± 0.58,2.56 ± 0.49

Sequence,protein stability index (treatment: DMSO),"protein stability index (treatment: MLN4924 1 uM, 8 h)"
ADDLVLTLSNPQMSLEGTEKASWL [ELF3],3.62 ± 0.29,3.85 ± 0.26
FKTGNSTATCTTNNNPNSCVNIKK [KCNA3],4.53 ± 0.15,4.58 ± 0.36
ERLYVIGGNHFRGTSDYDDVLSCE [KLHL13],3.28 ± 0.19,3.35 ± 0.18
PSGFKHVSHVGWDPQNGFDVNNLD [WAS],3.83 ± 0.24,3.79 ± 0.58
PNVYPAAPQGGMAALNMSLGMVTP [ADD1],3.26 ± 0.28,3.25 ± 0.21
ESVDEAGGSGPAGLRASTSDGILR [RHOBTB2],5.14 ± 0.21,5.16 ± 0.2
SYAHSVEDTHVQIGQVHEEFKQNI [FCHO1],4.55 ± 0.25,4.7 ± 0.081
PGLPPVPGAPGMPPGIPPLMPGVP [ZNF207],4.41 ± 0.2,4.5 ± 0.24
RKEGIVKLKPHEEPLRSEILSGKF [PTPN9],4.16 ± 0.13,4.08 ± 0.14
ACVVQQKDARQWFAELSVDMEKIL [CCNC],2.51 ± 0.26,2.42 ± 0.17
EAAVEALELLGATYVDKKRDLLGA [FEM1A],3.27 ± 0.31,3.49 ± 0.21
GGPGGRGPWSCENFNPLLVAGGVA [CEND1],2.82 ± 0.23,2.72 ± 0.18
PGGPRNLKPTASKLGAPLSGLQGL [PDLIM4],3.54 ± 0.21,3.54 ± 0.053
ILKRKWWKYILLGLADVEANYVIV [SLC35F2],2.55 ± 0.5,2.23 ± 0.76
YMVIEEGGMNHSAFPQTPFKTGNS [KCNA3],3.27 ± 0.17,3.22 ± 0.61
VGSALHRESFTSRQKTSGPSVIQE [C10orf62],4.18 ± 0.15,4.46 ± 0.2
KFTQDNLCRAQRERLASANLRVLV [TEKT4],2.15 ± 0.57,2.23 ± 0.26
QSLRDLGVKISEQQAEKILKSMDK [SLC25A25],4.12 ± 0.28,4.19 ± 0.35
LPDCCHGSELRDFPGRPMGHLSKD [DLC1],4.44 ± 0.29,4.32 ± 0.27
LGSSRTPETVRMVLSNMEKLFCIP [IMPA1],2.08 ± 0.39,2.2 ± 0.26
WSQQIEESTTVVTTQSAEVGAAET [KRT18],5.5 ± 0.21,5.42 ± 0.14
LKPTASKLGAPLSGLQGLPECTRC [PDLIM4],3.24 ± 0.31,3.44 ± 0.12
KALNLLPANTQINDIRIFLEKVLE [VPS39],2.11 ± 0.41,2.04 ± 0.29

Sequence,protein stability index (treatment: DMSO),"protein stability index (treatment: MLN4924 1 uM, 8 h)"
LQLQKGSDTEAQCEVMQEIVDQVL [INTS3],3.63 ± 0.35,3.93 ± 0.19
RAWEVDWFSLASVIFLLLFAPFIV [DHCR7],2.43 ± 0.45,2.65 ± 0.57
KSKPDRKRAESDSRKSSIPNNKEI [PTPRD],5.329 ± 0.046,5.46 ± 0.16
LSWYFLLCVNYFFYGETVADYFAT [CDS1],3.11 ± 0.46,3.51 ± 0.53
CSLYENDCIFDKFECAWNGSDSVI [PPP2R2C],2.21 ± 0.17,2.17 ± 0.15
TTREIRRQEAIYEMSRGEQDLIED [NET1],5.25 ± 0.16,5.13 ± 0.17
QLVLRTKEAFDTIQEQKVVLEENG [SASS6],4.45 ± 0.23,4.64 ± 0.46
AKVYVGVKQEIAEMRIPALNAYMK [NCF4],2.13 ± 0.2,2.32 ± 0.29
QPQDVDLALDSGASLLHLAVEAGQ [RIPK4],4.44 ± 0.51,4.58 ± 0.71
RRETVLFTDYGLAALAVNTSILSR [RNF208],2.09 ± 0.43,2.12 ± 0.18
LIRLFWTWHDERFLYMLMEYVPGG [PRKX],2.59 ± 0.47,2.48 ± 0.35
PDAWCDLSKFDLPEEPSAEDSINN [MYBL2],5.52 ± 0.12,5.42 ± 0.31
EKQSRCVNIEWHRFRFGQDQLLLA [WSB1],2.14 ± 0.24,2.6 ± 0.42
KPVVNVSYRPAYDQGGPVEILPFL [DUSP5],2.62 ± 0.14,2.66 ± 0.39
RDLLGALKHWRRAMELRHQGGEYL [FEM1A],2.46 ± 0.2,2.5 ± 0.45
HPFFFALGKILSVELGKQKKKYMP [FADS1],,1.89 ± 0.5
ASVSSHRFFGPNAEISQPPALSQL [TCF25],3.35 ± 0.46,3.29 ± 0.35
NLRVLVDCILRDTSEDLRLQCDAV [TEKT4],2.64 ± 0.57,2.46 ± 0.29
LKRLYRAPIDWIEEYTTGMADCIL [ALG2],2.26 ± 0.68,2.28 ± 0.69
SKYGIINLQSLKTPTLKVFMHENL [DCAF4],1.8 ± 0.43,2.03 ± 0.26
NTHAKSILNSMNSLRKSNTLCDVT [KLHL12],2.82 ± 0.4,3.27 ± 0.43
HTRQLISCGGDGGIVVWNMDVERQ [WDFY2],2.55 ± 0.36,2.4 ± 0.14
DEKEQLIIPQVPLFNILAKFNGIT [USP39],2.54 ± 0.3,2.57 ± 0.31

Sequence,protein stability index (treatment: DMSO),"protein stability index (treatment: MLN4924 1 uM, 8 h)"
AQEEEEEDQGRTRKRKQSGHSPAR [DDIT3],5.47 ± 0.31,5.7 ± 0.24
AKVDSSGVIDLFGDAFGSSASEPQ [SNAP91],4.47 ± 0.23,4.57 ± 0.19
EFYLLELMDCCLIVYHPYRPLLQY [CCNC],3.08 ± 1.3,2.98 ± 0.45
QFILERGEYPRWDAWSGSNAYHIE [CRYBA1],2.31 ± 0.17,2.19 ± 0.18
FASGGFQVKLYDIEQQQIRNALEN [CRYL1],2.56 ± 0.28,2.95 ± 0.83
HGPFSGFPGPQEHTQVLPDVRLLP [DYRK1B],3.57 ± 0.099,3.63 ± 0.21
NKPMLADVVFEIQGTTVPAHRAIL [RHOBTB3],2.3 ± 0.27,2.29 ± 0.2
FGVAGRSCQEVLRKGCLRFQLPER [DFFB],2.33 ± 0.24,2.25 ± 0.12
MIEDNKENKDHSLERGRASLIFSL [TPH1],3.25 ± 0.36,3.36 ± 0.18
EAHFMLQVADINDNPPTFSQVSYF [PCDHGA10],2.34 ± 0.41,2.33 ± 0.25
ALSTERELFAWGRGDSGRLGLGTR [NEK8],3.56 ± 0.17,3.46 ± 0.42
TRVSQLGLQVEGLRRRLEELQQEL [LRRC45],4.36 ± 0.24,4.55 ± 0.46
PENVEDSGLDSPSHAAPGPSPDSW [FCHO1],5.37 ± 0.13,5.46 ± 0.2
DGMSGLAGVGLSGGAAGAGWCIFV [ELAVL3],2.83 ± 1.1,2.69 ± 0.98
NFIVNDSRKKPIWNVLMWTSLFLG [SOAT1],2.08 ± 0.14,2.2 ± 0.45
LNVRSEEQVFNAVMAWVKYSIQER [KLHL20],2.54 ± 0.77,2.42 ± 0.23
QAEKRAAEKVSEARKRKNRRLKQA [ATP6V1G1],5.47 ± 0.51,5.33 ± 0.41
GAAESPYAYSNGIDYKTTTILLDG [RAB40C],3.7 ± 0.39,3.67 ± 0.39
LSALKHAVLGLYLLVFLILVGIFI [SCARA5],2.16 ± 0.63,2.08 ± 0.14
KAPVVECSITGDSSRVIAASYDKT [WDR88],4.56 ± 0.2,4.78 ± 0.12
FLGHHSFSVRPGTEATISIREDEV [SCNN1D],2.42 ± 0.64,3.12 ± 0.52
